The source of these data is paper doi:10.1101/2024.05.05.592584 (bioRxiv, 2024).

Among the targets are SARS-CoV-2 HV.1 RBD (SARS-CoV-2 Omicron HV.1, strain); SARS-CoV-2 XBB.1.5 RBD (SARS-CoV-2 Omicron XBB.1.5, strain); SARS-CoV-2 EG.5.1 RBD (SARS-CoV-2 Omicron EG.5.1, strain); SARS-CoV-2 BA.4/BA.5 RBD (SARS-CoV-2 Omicron BA.4/BA.5, strain).
Common to all, as to test: BLI
Holding throughout (details): both partners purified

The next assay concerns the target T1, SARS-CoV-2 BA.4/BA.5 NTD (SARS-CoV-2 Omicron BA.4/BA.5, strain).
T1 chain: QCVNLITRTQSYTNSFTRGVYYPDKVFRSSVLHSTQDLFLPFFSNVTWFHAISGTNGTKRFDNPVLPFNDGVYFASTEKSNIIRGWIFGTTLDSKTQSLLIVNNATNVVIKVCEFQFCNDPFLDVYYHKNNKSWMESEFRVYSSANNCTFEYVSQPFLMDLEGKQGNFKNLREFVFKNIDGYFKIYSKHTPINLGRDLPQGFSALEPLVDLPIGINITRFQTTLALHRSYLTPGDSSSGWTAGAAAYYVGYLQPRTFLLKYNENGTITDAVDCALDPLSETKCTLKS

The target in a further assay is T2, SARS-CoV-2 BA.2.75.2 NTD (SARS-CoV-2 Omicron BA.2.75.2, strain).
T2 chain: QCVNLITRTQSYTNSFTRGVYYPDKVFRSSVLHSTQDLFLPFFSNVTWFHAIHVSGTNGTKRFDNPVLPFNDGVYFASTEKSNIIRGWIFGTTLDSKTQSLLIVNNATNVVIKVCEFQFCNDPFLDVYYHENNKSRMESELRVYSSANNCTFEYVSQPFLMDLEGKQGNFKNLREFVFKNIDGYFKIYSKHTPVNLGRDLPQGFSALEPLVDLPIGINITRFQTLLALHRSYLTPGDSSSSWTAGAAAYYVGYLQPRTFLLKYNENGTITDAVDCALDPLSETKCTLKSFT

Another assay deals with T3, SARS-CoV-2 XBB.1.5 NTD (SARS-CoV-2 Omicron XBB.1.5, strain).
T3 chain: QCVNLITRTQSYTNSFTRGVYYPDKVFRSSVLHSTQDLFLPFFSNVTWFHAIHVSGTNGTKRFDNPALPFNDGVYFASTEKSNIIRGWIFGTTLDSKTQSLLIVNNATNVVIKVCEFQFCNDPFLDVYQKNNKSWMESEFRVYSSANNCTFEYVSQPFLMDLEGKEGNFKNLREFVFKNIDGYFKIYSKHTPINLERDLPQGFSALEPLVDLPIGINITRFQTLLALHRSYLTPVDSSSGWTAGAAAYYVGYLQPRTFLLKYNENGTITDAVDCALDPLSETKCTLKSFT

A further assay addresses T4, SARS-CoV-2 BA.2 NTD (SARS-CoV-2 Omicron BA.2, strain).
T4 chain: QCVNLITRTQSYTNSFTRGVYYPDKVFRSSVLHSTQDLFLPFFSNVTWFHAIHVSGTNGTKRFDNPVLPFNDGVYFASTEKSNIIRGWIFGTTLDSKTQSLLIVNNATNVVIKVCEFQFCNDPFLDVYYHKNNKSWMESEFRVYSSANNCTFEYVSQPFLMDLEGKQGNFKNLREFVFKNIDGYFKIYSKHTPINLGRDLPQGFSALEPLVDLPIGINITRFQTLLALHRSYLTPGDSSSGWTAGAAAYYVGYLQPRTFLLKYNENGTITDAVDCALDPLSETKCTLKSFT

In the next assay the target is T5, SARS-CoV-2 BA.1 NTD (SARS-CoV-2 Omicron BA.1, strain).
T5 chain: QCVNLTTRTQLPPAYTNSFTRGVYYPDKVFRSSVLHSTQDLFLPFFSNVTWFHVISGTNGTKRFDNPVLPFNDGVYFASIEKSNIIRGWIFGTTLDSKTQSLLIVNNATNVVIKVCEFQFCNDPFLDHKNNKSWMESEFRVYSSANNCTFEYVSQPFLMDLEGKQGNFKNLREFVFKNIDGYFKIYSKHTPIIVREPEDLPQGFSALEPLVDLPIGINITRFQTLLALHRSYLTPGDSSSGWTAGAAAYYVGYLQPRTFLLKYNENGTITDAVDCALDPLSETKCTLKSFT

Another assay concerns the target T6, SARS-CoV-2 XBB.1.16 NTD (SARS-CoV-2 Omicron XBB.1.16, strain).
T6 chain: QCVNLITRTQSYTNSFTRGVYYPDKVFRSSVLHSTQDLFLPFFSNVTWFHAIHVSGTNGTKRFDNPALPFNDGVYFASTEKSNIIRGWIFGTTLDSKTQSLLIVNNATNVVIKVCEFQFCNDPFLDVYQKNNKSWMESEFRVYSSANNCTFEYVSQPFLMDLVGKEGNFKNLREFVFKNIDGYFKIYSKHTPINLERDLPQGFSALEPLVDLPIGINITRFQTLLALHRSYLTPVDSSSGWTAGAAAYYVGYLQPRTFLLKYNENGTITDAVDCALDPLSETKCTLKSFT

For assay [1], the target named is T7, SARS-CoV-2 B.1.617.2 (Delta) NTD (SARS-CoV-2 B.1.617.2 (Delta), strain).
T7 chain: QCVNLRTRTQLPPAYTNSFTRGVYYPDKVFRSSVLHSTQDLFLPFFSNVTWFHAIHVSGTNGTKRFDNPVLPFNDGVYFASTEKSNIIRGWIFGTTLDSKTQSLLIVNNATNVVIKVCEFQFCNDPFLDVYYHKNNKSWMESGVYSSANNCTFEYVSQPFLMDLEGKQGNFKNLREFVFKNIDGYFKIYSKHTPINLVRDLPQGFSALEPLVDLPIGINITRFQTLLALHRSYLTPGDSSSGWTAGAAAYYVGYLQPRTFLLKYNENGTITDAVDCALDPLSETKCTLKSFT

For the next assay, the target named is T8, SARS-CoV-2 EG.5.1 NTD (SARS-CoV-2 Omicron EG.5.1, strain).
T8 chain: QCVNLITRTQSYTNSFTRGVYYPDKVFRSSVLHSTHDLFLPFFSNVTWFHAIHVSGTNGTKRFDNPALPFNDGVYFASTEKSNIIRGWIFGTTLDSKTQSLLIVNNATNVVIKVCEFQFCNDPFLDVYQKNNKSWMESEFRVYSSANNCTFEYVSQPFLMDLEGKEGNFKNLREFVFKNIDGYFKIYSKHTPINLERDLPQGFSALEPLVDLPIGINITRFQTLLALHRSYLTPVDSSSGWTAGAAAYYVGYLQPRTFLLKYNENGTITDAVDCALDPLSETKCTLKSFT

In assay [2] the target is T9, SARS-CoV-2 P.1 (Gamma) NTD (SARS-CoV-2 P.1 (Gamma), strain).
T9 chain: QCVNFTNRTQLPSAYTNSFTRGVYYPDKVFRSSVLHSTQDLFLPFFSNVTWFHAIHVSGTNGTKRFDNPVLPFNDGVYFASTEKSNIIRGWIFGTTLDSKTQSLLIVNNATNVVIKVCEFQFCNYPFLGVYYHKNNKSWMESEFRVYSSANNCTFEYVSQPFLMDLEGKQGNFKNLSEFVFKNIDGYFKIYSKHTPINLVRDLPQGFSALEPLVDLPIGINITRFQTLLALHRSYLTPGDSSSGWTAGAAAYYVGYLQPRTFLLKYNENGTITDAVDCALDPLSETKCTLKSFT

B1: C952 IgG (antibody, V domains shown)
VH: EVQLVQSGAEVKKPGESLTISCKDSGNSFTIYWIGWVRQMPGKGLEWMGMIYPGDSGTRYSPSFEGQVTISADESINTAYLQWRSLKASDTAMYYCVRGIAVDWYFDLWGRGTLVTVSS
VL: QSVLTQPPSVSGAPGQRVTISCTGSSSNIGAGFDVHWYQQLPGTAPKLLIYGNNNRPSGVPDRFSGSKSATSASLAITGLQAEDEADYYCQSSDSSLSGLYVFGTGTNVIVL
notes: copies: 2 + 2
As a reminder, the Kd is the constant that tells how readily two partners part at equilibrium. In general, koff refers to the rate constant with which the complex falls apart. A low value points to slow dissociation. What is called kon is a measure of how fast the partners come together. Low values mean slow association, high ones fast association. For the molecule B1, the Kd came to 939000 nM with SARS-CoV-2 HV.1 RBD, 99.3 nM with SARS-CoV-2 XBB.1.5 RBD, 180000 nM with SARS-CoV-2 EG.5.1 RBD and 8.22 nM with SARS-CoV-2 BA.4/BA.5 RBD. The koff came out at 0.037 s⁻¹ with SARS-CoV-2 HV.1 RBD, 0.0046 s⁻¹ with SARS-CoV-2 XBB.1.5 RBD, 0.289 s⁻¹ with SARS-CoV-2 EG.5.1 RBD and 0.00358 s⁻¹ with SARS-CoV-2 BA.4/BA.5 RBD. For the same molecule, the on-rate constant (kon) was found to be 39.4 M⁻¹ s⁻¹ with SARS-CoV-2 HV.1 RBD, 46300 M⁻¹ s⁻¹ with SARS-CoV-2 XBB.1.5 RBD, 1600 M⁻¹ s⁻¹ with SARS-CoV-2 EG.5.1 RBD and 435000 M⁻¹ s⁻¹ in the assay with SARS-CoV-2 BA.4/BA.5 RBD.

B2: C1596 IgG (antibody, V domains shown)
VH: QVQLVQSGAEVKKPGSSVKVSCKASGGTFINYAVTWVRQAPGQGLEWMGGIIPILGIPNYAQKFQGRVTITADKSTSTAYMELSSLRSEDTAVYYCARVPQAGAAQGHYYYYYGMDVWGQGTTVTVSS
VL: not shown
notes: copies: 2 + 2
With B2, the dissociation constant Kd in the assay with SARS-CoV-2 BA.4/BA.5 NTD is 674 nM; with SARS-CoV-2 BA.2.75.2 NTD it was 607 nM; in the assay with SARS-CoV-2 XBB.1.5 NTD, 529 nM; in the assay with SARS-CoV-2 BA.2 NTD, 685 nM; with SARS-CoV-2 BA.1 NTD, 88.2 nM; in the assay with SARS-CoV-2 XBB.1.16 NTD, 591 nM. The figures for the Kd (in assay [1]; in the assay with SARS-CoV-2 EG.5.1 NTD; in assay [2]) were 124 nM, 410 nM and 282 nM, respectively.

B3: C1520 IgG (antibody, V domains shown)
VH: EVQLVESGGGLVQPGGSLRLACVASGFTFSIYEMNWVRQAPGKGLEWVSYITTSGHARYNADSVKGRFTISRDNSKNSFYLQMNSLRAEDTAIYYCARPQYHYYDTSTYHSYGFDIWGQGTMVTVSS
VL: QLVLTQSPSASASLGASVNLTCTLSSGHNSYAIAWHQQQPEKGPRYLMSLNSDGSHTKGDGIPDRFSGSSSGAERFLTISSLQSEDEADYYCQTWDTGIRVFGGGTRLTVL
notes: copies: 2 + 2
In the case of B3, the Kd with SARS-CoV-2 BA.4/BA.5 NTD amounted to 11.4 nM; with SARS-CoV-2 BA.2.75.2 NTD it was 185 nM; in the assay with SARS-CoV-2 BA.2 NTD, 14.3 nM; with SARS-CoV-2 BA.1 NTD it was 118 nM; in assay [1], 47 nM; in assay [2], 230 nM. The koff is 0.000528 s⁻¹ in the assay with SARS-CoV-2 BA.4/BA.5 NTD; 0.00569 s⁻¹ with SARS-CoV-2 BA.2.75.2 NTD; 0.000514 s⁻¹ in the assay with SARS-CoV-2 BA.2 NTD; 0.00418 s⁻¹ with SARS-CoV-2 BA.1 NTD; 0.00141 s⁻¹ in [1]; 0.00301 s⁻¹ in assay [2]. Further, the kon stood at 46300 M⁻¹ s⁻¹ with SARS-CoV-2 BA.4/BA.5 NTD; 30700 M⁻¹ s⁻¹ in the assay with SARS-CoV-2 BA.2.75.2 NTD; 36000 M⁻¹ s⁻¹ with SARS-CoV-2 BA.2 NTD; 35500 M⁻¹ s⁻¹ with SARS-CoV-2 BA.1 NTD; 30000 M⁻¹ s⁻¹ in assay [1]; 13100 M⁻¹ s⁻¹ in assay [2].

B4: C1533 IgG (antibody, V domains shown)
VH: QVQLVQSGAEVKKPGSSVKVSCKTSGVIFSRNAFSWVRQAPGQGLEWMGRIIPFLDVTNSAQEFQGRVTLNADKSTSTVYMELSSLRSEDTAIYYCARHNGDPYDFWSGYNTWAGGLDVWGQGTTVTVSS
VL: QSVLTQPPSASGTPGQRVTISCSGSGSNIGSNAVNWYQQLPGTAPKLLIYNQNQRPSGVPDRFSGSKSGTSASLAIGGLQSEDEADYYCATWDDNLSGLVFGGGTKLTVL
notes: copies: 2 + 2
Consider B4, for which, in assay [2], the affinity, expressed as Kd, was 24.9 nM; the koff is 0.00107 s⁻¹; the kon was 43100 M⁻¹ s⁻¹.
